From patent WO2012003472A1 (dated 2012) come the findings set out here.

The target of assay [1] is human Notch1 displayed on the surfaces of cells (human, UniProt P46531 19-2555). The assay can be described thus: cell-based or functional assay.
For assay [2], the target named is T1, recombinant human Notch 1/Fc fusion protein (rhNotch1-Fc) (human, UniProt P46531 19-526).
T1 construct: Bought protein; also called rhNotchl-Fc; R&D Systems Cat. No. 3647-TK-050; not shown: Fc part
The assay can be described thus: SPR (Biacore T100), antibody captured on anti-mouse IgG, rhNotch1-Fc as analyte, 25°C.

The next assay addresses T2, rhNotch2-Fc (human, UniProt Q04721 26-530).
T2 construct: Bought protein; also called human Notch2 protein; R&D Cat. No. 3735-NT-050; not shown: Fc part
T2 sequence (looked up): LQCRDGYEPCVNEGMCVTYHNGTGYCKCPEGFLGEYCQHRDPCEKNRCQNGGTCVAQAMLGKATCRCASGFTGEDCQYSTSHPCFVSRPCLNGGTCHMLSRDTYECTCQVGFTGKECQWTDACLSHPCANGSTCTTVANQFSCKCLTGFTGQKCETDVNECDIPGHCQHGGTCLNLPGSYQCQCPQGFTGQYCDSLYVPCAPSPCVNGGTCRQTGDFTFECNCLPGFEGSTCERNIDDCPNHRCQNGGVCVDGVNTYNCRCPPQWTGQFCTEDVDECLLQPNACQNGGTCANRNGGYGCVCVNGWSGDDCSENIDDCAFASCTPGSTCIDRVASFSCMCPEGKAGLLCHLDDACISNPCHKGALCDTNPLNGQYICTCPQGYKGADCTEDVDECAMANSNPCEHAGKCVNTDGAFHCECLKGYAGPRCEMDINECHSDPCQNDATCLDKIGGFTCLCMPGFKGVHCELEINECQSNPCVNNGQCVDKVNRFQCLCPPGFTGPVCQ
The assay can be described thus: BLI (Octet QK), Notch-Fc on anti-human-Fc sensors. (In general: Biolayer interferometry detects binding as a change in optical thickness at a sensor tip.)

Another assay deals with T3, rhNotch3-Fc (human, UniProt Q9UM47 40-467).
T3 construct: Bought protein; also called human Notch3 protein; R&D Cat. No. 1559-NT-050; not shown: Fc part
T3 sequence (looked up): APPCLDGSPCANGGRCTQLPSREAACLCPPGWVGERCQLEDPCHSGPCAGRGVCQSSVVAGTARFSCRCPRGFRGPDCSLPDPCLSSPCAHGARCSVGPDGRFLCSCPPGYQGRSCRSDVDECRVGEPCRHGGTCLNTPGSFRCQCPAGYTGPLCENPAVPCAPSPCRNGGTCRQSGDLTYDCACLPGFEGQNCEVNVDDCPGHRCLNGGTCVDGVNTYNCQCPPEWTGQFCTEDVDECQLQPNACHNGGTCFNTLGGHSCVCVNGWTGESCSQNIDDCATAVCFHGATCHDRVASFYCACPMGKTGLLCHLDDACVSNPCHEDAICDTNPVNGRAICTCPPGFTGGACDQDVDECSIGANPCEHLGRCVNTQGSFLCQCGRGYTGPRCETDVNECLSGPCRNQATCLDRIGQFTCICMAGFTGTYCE
Description: BLI (Octet QK), Notch-Fc on anti-human-Fc sensors.

Assay [3] addresses T4, human Notch2 displayed on the surfaces of cells (human, UniProt Q04721 26-2471).
T4 construct: whole, on cells; also called human Notch2 on CHO FlpIn cells; Notch2-dependent reporter cells
Description: electrochemiluminescence (Meso Scale Discovery) on CHO FlpIn cells.

In assay [4] the target is T5, human Notch3 displayed on the surfaces of cells (human, UniProt Q9UM47 40-2321).
T5 construct: whole, on cells; also called human Notch3 on CHO FlpIn cells; Notch3-dependent reporter cells
The assay is described as above.

In assay [5] the target is T6, human Notch4 displayed on the surfaces of cells (human, UniProt Q99466 24-2003).
T6 construct: whole, on cells; also called human Notch4 on CHO FlpIn cells
The assay is described as above.

Sequence of human Notch1 displayed on the surfaces of cells (P46531 19-2555): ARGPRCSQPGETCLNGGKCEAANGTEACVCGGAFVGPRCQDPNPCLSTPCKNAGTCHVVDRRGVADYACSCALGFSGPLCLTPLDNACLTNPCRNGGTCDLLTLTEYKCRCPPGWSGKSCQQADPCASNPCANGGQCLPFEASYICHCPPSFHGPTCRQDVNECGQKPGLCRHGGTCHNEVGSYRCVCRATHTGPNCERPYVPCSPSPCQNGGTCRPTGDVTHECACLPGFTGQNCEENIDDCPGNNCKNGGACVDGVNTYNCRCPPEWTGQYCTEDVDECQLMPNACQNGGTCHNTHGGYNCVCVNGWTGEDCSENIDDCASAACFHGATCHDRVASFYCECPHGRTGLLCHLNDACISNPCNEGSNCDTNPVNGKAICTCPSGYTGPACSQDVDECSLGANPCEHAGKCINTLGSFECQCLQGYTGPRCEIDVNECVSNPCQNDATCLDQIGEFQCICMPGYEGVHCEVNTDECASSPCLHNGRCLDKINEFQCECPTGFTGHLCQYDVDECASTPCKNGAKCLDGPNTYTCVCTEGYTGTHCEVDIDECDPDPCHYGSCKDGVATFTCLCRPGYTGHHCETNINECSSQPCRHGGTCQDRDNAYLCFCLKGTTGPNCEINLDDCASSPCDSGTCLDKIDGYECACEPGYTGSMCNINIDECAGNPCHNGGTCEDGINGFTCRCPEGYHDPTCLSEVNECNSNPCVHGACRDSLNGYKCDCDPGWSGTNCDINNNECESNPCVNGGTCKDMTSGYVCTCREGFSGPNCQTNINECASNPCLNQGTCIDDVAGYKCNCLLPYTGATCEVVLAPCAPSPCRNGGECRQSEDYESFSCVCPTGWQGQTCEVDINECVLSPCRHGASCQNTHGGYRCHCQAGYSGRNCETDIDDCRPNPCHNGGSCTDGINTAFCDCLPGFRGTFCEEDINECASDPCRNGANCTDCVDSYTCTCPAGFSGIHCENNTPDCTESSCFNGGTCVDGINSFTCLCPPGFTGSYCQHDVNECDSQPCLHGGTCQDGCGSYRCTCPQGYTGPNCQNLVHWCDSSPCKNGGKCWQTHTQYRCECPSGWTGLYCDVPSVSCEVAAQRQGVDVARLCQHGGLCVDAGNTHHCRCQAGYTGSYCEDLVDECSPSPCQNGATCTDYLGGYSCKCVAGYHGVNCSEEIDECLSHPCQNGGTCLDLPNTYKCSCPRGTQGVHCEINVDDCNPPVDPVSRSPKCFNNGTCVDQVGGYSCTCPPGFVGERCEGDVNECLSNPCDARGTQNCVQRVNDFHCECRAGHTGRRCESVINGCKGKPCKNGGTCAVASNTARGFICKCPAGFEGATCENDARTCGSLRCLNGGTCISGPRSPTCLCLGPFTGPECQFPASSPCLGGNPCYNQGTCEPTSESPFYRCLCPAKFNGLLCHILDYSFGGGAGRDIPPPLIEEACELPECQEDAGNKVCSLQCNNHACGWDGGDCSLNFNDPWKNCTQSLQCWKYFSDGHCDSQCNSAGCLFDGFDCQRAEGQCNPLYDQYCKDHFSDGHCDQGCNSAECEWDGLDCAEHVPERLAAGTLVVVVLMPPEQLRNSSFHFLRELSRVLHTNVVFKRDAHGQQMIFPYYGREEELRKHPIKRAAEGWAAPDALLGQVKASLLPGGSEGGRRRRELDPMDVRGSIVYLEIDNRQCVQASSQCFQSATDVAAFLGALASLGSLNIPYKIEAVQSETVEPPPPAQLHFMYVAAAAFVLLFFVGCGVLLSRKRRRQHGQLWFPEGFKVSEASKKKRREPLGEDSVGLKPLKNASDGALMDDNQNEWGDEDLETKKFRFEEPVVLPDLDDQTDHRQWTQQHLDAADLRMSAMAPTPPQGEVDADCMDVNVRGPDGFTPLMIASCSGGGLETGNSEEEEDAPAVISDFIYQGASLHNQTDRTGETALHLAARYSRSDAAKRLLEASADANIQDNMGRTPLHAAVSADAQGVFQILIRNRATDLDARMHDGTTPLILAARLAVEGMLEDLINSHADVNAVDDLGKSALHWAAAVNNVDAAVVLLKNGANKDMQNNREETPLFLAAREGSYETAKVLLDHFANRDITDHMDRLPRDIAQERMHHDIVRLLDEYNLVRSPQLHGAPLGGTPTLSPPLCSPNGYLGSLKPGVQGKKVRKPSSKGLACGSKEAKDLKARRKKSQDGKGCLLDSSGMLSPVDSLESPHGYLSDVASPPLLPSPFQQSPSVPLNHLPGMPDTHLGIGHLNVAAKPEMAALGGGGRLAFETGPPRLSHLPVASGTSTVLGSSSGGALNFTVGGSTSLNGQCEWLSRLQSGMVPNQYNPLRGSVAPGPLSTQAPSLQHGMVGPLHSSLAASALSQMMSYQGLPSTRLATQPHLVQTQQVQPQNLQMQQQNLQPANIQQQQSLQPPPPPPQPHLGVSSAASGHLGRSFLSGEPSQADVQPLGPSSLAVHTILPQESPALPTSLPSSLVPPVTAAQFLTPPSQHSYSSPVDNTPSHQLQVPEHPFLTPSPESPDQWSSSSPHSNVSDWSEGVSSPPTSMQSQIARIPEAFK
T6 sequence (Q99466 24-2003): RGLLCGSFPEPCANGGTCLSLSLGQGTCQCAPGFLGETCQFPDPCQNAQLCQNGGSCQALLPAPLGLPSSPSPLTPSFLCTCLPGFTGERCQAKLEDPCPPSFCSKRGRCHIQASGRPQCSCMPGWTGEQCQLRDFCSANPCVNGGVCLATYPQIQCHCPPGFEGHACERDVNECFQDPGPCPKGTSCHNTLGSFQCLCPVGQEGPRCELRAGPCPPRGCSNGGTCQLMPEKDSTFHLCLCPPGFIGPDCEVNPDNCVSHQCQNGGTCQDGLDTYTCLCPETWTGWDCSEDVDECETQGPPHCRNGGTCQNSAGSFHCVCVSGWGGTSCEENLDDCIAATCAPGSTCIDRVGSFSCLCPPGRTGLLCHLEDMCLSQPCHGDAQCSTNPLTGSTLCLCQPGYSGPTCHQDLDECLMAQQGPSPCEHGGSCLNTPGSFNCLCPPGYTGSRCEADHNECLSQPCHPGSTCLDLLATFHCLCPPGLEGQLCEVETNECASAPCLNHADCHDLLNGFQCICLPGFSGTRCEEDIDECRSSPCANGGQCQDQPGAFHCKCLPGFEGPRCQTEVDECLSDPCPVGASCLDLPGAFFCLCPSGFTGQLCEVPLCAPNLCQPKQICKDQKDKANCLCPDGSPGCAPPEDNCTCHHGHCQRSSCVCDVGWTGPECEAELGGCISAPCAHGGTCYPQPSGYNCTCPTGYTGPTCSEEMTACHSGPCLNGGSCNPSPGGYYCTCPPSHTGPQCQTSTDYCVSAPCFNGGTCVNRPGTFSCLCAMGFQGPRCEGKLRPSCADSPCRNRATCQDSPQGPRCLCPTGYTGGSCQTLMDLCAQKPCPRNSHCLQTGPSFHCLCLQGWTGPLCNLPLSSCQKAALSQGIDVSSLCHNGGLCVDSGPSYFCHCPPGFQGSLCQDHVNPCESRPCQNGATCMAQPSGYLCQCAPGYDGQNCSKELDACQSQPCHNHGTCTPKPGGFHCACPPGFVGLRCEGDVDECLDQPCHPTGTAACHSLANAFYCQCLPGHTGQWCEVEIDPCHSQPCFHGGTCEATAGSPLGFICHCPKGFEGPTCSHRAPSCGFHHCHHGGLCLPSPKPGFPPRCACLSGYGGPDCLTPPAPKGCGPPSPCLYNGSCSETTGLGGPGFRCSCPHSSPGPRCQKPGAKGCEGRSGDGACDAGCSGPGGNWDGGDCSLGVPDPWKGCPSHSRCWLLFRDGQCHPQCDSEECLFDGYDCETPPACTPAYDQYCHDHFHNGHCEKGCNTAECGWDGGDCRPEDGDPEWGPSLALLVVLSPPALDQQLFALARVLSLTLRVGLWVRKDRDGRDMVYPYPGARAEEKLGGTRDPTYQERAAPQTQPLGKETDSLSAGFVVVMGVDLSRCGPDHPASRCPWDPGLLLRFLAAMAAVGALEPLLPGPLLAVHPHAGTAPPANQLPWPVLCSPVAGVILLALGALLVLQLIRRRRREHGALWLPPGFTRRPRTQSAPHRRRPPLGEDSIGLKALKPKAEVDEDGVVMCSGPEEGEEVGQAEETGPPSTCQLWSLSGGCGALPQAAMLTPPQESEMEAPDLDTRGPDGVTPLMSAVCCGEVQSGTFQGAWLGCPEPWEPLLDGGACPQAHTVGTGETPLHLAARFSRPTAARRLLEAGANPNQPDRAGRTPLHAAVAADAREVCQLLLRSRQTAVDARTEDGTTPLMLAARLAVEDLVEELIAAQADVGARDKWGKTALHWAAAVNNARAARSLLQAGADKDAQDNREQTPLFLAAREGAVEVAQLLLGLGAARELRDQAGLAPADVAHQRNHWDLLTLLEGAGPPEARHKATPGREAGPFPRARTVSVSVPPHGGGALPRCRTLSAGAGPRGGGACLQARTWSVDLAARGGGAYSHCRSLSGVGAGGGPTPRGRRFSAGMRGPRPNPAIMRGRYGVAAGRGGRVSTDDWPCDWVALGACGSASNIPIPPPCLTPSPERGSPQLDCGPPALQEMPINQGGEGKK

B1: Hu2E6-62 (antibody, human IgG1, kappa, V domains shown)
VH: EVQLVQSGAEVAKPGASVKMSCKASGYTFTSYWMHWVKQAPGQGLEWIGAVYPRNNDATYNQKFKGKATLTADTSTSTAYMELRSLRSDDTAVYYCLYFNYNFDYWGQGTLLTVSS
VL: EIVLTQSPATMSASPGERVTMSCRASSSVSYMHWYQQKPGQSPRLLIYDTSNRASGVPAHFSGSGSGTDYTLTISSMEPEDFATYYCQQWSSYPYTFGQGTKLEIKR
Take B1: in assay [1], the “EC50, Inhibition of Notch 1 Signaling, DLL1 (row printed 'DLI A')” value is 0.1 nM; the “EC50, Inhibition of Notch 1 Signaling, DLL4 (row printed 'DLI A')” value worked out at 0.02 nM; the “EC50, Inhibition of Notch 1 Signaling, Jag 1” value came to 0.9 nM; the “EC50, Inhibition of Notch 1 Signaling, Jag 2” value worked out at 0.5 nM.

B2: antibody 2D11 (antibody, mouse IgG1, kappa, V domains shown)
VH: EVQLQQSGAELARPGASVKMSCKASGYTFTRYWMHWVKQRPGQGLEWIGAIYPGNSDTTYNQKFKGKAKLTAVTSASTAYMELSSLTNEDSAVYYCIYPYDYLDYWGQGTTLTVSS
VL: QIVLTQSPAIMSASPGEKVTMTCSASSSLSYMHWYQQKPGTSPKRWVYDTSKLASGVPARFSGSGSGTSYSLTISSMEAEDAATYYCHQRSSYPYTFGGGTKLEIKR
notes: Mouse monoclonal from hybridoma, IgG1 kappa
In general, Kd refers to the constant that tells how readily two partners part at equilibrium. In the case of B2, the equilibrium dissociation constant (Kd) in assay [2] was at most 10 nM.

B3: antibody 2E6 (antibody, mouse IgG1, kappa, V domains shown)
VH: EVQLQQSGAELARPGASVKMSCKASGYTFTSYWMHWVKQRPGQGLEWIGAVYPRNNDTTYNQKFKGKAKLTAVTSASTAYMALSSLTNEDSAVYYCLYFNYNFDYWGQGTTLTVSS
VL: QIVLTQSPAIMSASPGEKVTMTCSASSSVSYMHWYQQKPGSSPRLLIYDTSNLASGVPVHFSGSGSGTSYSLTIIRMEAEDAATYYCQQWSSYPYTFGGGTKLEIKR
notes: Mouse monoclonal from hybridoma, IgG1 kappa; also called 2E06; mu2E6
For B3, in assay [1], the “EC50, Inhibition of Notch 1 Signaling, DLL1 (row printed 'DLI A')” value worked out at 0.2 nM; the “EC50, Inhibition of Notch 1 Signaling, DLL4 (row printed 'DLI A')” value came out at 0.1 nM; the “EC50, Inhibition of Notch 1 Signaling, Jag 1” value came out at 0.4 nM; the “EC50, Inhibition of Notch 1 Signaling, Jag 2” value came to 0.1 nM. The Kd in assay [2] was at most 10 nM.

B4: antibody 2A11 (antibody, mouse IgG2b, kappa, V domains shown)
VH: QVQLQQSGPELVKPGASVKISCKASGYAFSSSWMNWVKQRPGKGLEWIGRIYPGDGDTNYNGKFKGKATLTADKSSSTAYMQLSSLTSEDSAVYFCARSGSIYYGNHGDYFDYWGQGTTLTVSS
VL: B3 VL
notes: Mouse monoclonal from hybridoma, IgG2b kappa
B4: the binding result with rhNotch2-Fc is recorded as “no binding (tested: 50 μg/ml antibody)”; with rhNotch3-Fc, “no binding (tested: 50 μg/ml antibody)”; in assay [3], “no binding (tested: 5 μg/ml antibody)”; in assay [4], “no binding (tested: 5 μg/ml antibody)”; in assay [5], “no binding (tested: 5 μg/ml antibody)”. In addition, the Kd in assay [2] is at most 10 nM.
